Five molecules from patent US20210155689A1 (SHANGHAI PHARMAEXPLORER, published 2021) can be followed below.

The target of test [1] is T1, monkey LAG-3 (full length, on the cell surface) (monkey, UniProt P18627 24-525 (human entry)).
T1 construct: also called HEK293-cLAG-3; monkey LAG-3 protein on the cell surface
T1 chain: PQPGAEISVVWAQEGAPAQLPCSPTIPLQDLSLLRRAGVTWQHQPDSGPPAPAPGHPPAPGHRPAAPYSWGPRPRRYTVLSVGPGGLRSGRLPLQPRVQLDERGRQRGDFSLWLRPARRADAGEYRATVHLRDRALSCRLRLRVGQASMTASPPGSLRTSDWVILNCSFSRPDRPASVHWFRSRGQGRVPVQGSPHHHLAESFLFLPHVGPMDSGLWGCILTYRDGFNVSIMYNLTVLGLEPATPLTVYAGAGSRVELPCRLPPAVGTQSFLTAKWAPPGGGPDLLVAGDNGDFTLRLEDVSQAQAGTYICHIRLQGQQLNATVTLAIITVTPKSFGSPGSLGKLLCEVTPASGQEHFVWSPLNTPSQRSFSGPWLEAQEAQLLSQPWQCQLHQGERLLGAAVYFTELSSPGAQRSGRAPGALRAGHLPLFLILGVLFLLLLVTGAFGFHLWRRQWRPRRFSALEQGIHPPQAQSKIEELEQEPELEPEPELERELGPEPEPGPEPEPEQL
Briefly: FACS, HEK293-cLAG-3; 0.320 nM. The source says: (§1) The pIRES plasmid with the monkey-derived full-length gene was transfected into the HEK293 cell line to construct a HEK293 stable cell line containing monkey LAG-3 (herein referred to as HEK293-cLAG-3 stable cell line). The HEK293-hLAG-3 stable cell line and HEK293-cLAG-3 stable cell line were expanded in a T-75 cell culture flask to a 90% confluence. The medium was aspirated, and the cells were washed with HBSS (Hanks' Balanced Salt Solution) 1-2 times, then treated with a enzyme-free cell dissociation fluid (Versene solution: Life technology) and the cells were collected. The cells were washed with HBSS buffer for 1-2 times. After counted, the cells were diluted with HBSS to 1-2×10⁶ cells per ml, added with 1% goat serum blocking solution, incubated on ice for 20-30 minutes, and then washed with HBSS for 2 times by centrifugation. The collected cells were suspended in the FACS buffer (HBSS+1% BSA) to 2×10⁶ cells/ml, added as 100 microliters per well to a 96-well FACS reaction plate, added with 100 microliters per well of the antibody sample to be tested, incubated on ice for 1-2 hours. The plate was washed twice with the FACS buffer by centrifugation, added with 100 microliters of fluorescent (Alexa 488)-labeled secondary antibodies per well, and incubated on ice for 0.5-1.0 hours. The plate was washed 2-3 times with FACS buffer by centrifugation, added with 100 μl fixative solution (4% Paraformaldehyde) per well to suspend the cells. 5-10 minutes later, it was washed 1-2 times with FACS buffer by centrifugation. The cells were suspended with 100 microliters of FACS buffer, FACS (FACSCalibur, BD) was used for detection and the results were analyzed.

The target of test [2] is T2, human LAG-3 (full length, on the cell surface) (human, UniProt P18627 23-525).
T2 construct: Full-length human LAG-3 expressed on cells; also called HEK293-hLAG-3; HEK293 cells transfected with LAG-3 gene
T2 sequence: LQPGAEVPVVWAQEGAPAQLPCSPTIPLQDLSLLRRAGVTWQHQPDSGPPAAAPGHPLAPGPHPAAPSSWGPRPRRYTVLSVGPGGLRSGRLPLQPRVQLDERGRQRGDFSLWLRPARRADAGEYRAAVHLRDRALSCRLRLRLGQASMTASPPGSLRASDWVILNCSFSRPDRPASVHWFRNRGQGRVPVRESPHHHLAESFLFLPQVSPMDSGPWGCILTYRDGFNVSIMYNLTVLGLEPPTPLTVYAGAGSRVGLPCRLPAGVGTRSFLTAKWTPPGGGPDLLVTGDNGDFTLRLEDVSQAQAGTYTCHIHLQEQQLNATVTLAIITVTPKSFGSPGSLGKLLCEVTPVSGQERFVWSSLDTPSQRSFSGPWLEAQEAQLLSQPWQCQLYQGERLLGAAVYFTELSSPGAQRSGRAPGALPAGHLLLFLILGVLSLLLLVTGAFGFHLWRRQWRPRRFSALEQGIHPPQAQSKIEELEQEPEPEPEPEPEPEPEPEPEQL
Briefly: FACS, HEK293-hLAG-3; 40.000 nM.
From the text: as §1

Test [3] concerns the target T1, monkey LAG-3 (full length, on the cell …). The test is described as follows: FACS, HEK293-cLAG-3; 40.000 nM.
From the text: as §1
(A flow cytometer gives signals particle by particle.)

Test [4] deals with T3, human LAG-3 protein with hFc tag (hLAG-3-hFc protein) (human, UniProt P18627 23-450).
T3 construct: also called immunogen 1; LAG-3 extracellular domain protein; not shown: human IgG Fc fragment (hFc) of the pCpC vector
T3 sequence: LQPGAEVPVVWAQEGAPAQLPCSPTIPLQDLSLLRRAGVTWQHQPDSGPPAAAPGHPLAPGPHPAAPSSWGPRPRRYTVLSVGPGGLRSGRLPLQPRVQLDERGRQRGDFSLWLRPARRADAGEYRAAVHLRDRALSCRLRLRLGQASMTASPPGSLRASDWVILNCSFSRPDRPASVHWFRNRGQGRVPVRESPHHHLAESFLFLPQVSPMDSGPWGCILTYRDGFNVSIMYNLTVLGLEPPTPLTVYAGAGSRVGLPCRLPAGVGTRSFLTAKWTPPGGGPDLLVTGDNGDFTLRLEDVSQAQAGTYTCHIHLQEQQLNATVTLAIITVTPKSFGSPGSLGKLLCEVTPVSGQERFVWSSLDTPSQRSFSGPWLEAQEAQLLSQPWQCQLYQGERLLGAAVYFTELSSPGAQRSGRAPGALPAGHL
Briefly: FACS, blocks LAG-3-hFc binding to MHC II on Raji; 2.469 nM. The procedure:
The FACS reaction plate incubating the Raji cells was centrifuged to discard the supernatant. The above mixture was added as 100 μl per well to Raji cells and incubated on ice for 1-2 hours. The plate was washed twice with blocking solution (PBS, 2% fetal bovine serum) by centrifugation, added with 100 microliters of fluorescent (Alexa 488)-labeled secondary antibodies per well, and incubated on ice for 1.0 hours. The plate was washed 2-3 times by centrifugation with blocking solution (PBS, 2% fetal bovine serum), added with 100 microliters of PBS per well to suspend cells, and detected using FACS (FACS Calibur, BD) and the results were analyzed. Wherein, the IgG control was murine IgG, and the data in the table is the inhibition rate (%).

B1: 405B8H3 (mouse antibody purified from hybridoma) (antibody, V domains shown)
VH: QVQLQQSGAELVRPGASVTLSCKASGYTFTDYEMHWVKQTPVHGLEWIGATDPETGNSAYNQKFKGKAIMTADKSSSTAYMELRSLTSEDSAVYYCISTGWNDWGQGTSLTVSS
VL: DIKMTQSPSSMYASLGERVTITCKASQDINSYLSWFQQKPGKSPKTLIYRADRLLDGVPSRFSGSGSGQDYSLTISSLEYGDMGIYYCLQYDEFPYTFGGGTKLEIK
notes: also called mAb103-405B8H3; 405B81-13
For the molecule B1, the Mean fluorescence intensity was 8 MFI in test [1], 321 MFI in test [2] and 108 MFI in test [3]. Besides, in test [4], the “Inhibition rate (%)” value was found to be 41.9%.

B2: 105F1E10 (mouse antibody purified from hybridoma) (antibody, V domains shown)
VH: EVQLQQSGPELVKPGASVKMSCRASGYTFTDFKMHWMKQSHGKSLEWIGYIAPNNGGTAYNQKFRGKATLTVNESSNTAYMELRSLTSEDSAVYYCVDWDDVDYWGQGTTLTVSS
VL: DIKMTQSPSSMYASLGERVTITCKASQDINSYLSWFQQKSGKSPKTLIYRANRLVDGVPSRFSGSGSGQDYSLTISSLEYEDMGIYYCLQYVEFPLTFGAGTKLELK
notes: also called mAb009-105F1E10
Turning to B2, the Mean fluorescence intensity in test [1] came to 6.6 MFI; in test [2] it was 315 MFI; in test [3] it was 87 MFI. Besides, in test [4], the “Inhibition rate (%)” value is 27.8%.

B3: 409D4E10 (mouse antibody purified from hybridoma) (antibody, V domains shown)
VH: QVQLQQSGAELVRPGASVTLSCKASGNTFTDYEMHWVKQTPVHGLEWIGATDPETDNTAYNQKFKGKAILTTDKSSSTAYMELRSLTSEDSAVYYCITSGWNDWGQGTSLTVSS
VL: DIKMTQSPSSMYASLGERVTITCKASQDINSYLSWFQQKPGKSPKTLIYRANRLLDGVPSRFSGSGSGQDYSLTISSLEYEDMGIYYCLQYNEFPYTFGGGTKLEIK
notes: also called mAb112-409D4E10
With B3, the Mean fluorescence intensity in test [1] stood at 11.5 MFI; in test [2], 153 MFI; in test [3] it was 130 MFI. Further, in test [4], the “Inhibition rate (%)” value was 44.7%.

B4: 409B11E12 (mouse antibody purified from hybridoma) (antibody, V domains shown)
VH: QVQLQQSGAELVRPGASVTLSCKASGYTFTDYEMHWVKQTTVHGLEWIGATDPETSYSAYNQKFKGKAILTADKSSSTAYMELRSLTSEDSAVYYCIATGWNDWGQGTSLTVSS
VL: DLKMTQSPSSMYASLGERVTITCKASQDINSYLSWFQQKPGKSPKTLIYRANRLLDGVPSRFSGSGSGQDYSLTISSLEYEDMGIYYCLQYDEFPYTFGGGTKLEIK
notes: also called mAb104-409B11E12
As to B4, the values for the Mean fluorescence intensity in test [1], in test [2] and in test [3] were 8 MFI, 148 MFI and 102 MFI, respectively. Moreover, the “Inhibition rate (%)” value in test [4] stood at 39.6%.

B5: 556F6B8 (mouse antibody purified from hybridoma) (antibody, V domains shown)
VH: RVQLKQSGPGLVQPSQSLSITCTVSGFSLIKYGVHWVRQSPGEGLEWLGVIWRGGITDYNAAFMSRLSITKDNSKSQVFFKMNSLQADDTAIYYCAKWDGPLAMDYWGQGTSVTVSS
VL: DIVMTQSHKFLSTSVGDRVSITCKASQDVGTTVAWYQQKPGQSPKLLIYWASTRHTGVPDRFTGSGSGTDFTLTISNVQSEDLADYFCQQYSSYPYTFGGGTKLEIK
notes: also called mAb123-556F6B8
Take B5: the figures for the Mean fluorescence intensity in test [1], in test [2] and in test [3] were 9.8 MFI, 81.8 MFI and 51 MFI, respectively. The “Inhibition rate (%)” value in test [4] amounted to 48.1%.
